Patent US20240197828A1 (FEINSTEIN INSTITUTES FOR MEDICAL RESEARCH, published 2024)
Positions count from the first letter of the chain named.

T1: recombinant murine MFG-E8 (rmMFG-E8) (mouse, UniProt P21956 23-463)
T1 construct: For SPR it was bought from R&D Systems (Cat #2767-MF-050); For the cell assays it was made in the lab; also called milk fat globule-epidermal growth factor-factor VIII; AlexaFluor568-rmMFG-E8
T1 sequence: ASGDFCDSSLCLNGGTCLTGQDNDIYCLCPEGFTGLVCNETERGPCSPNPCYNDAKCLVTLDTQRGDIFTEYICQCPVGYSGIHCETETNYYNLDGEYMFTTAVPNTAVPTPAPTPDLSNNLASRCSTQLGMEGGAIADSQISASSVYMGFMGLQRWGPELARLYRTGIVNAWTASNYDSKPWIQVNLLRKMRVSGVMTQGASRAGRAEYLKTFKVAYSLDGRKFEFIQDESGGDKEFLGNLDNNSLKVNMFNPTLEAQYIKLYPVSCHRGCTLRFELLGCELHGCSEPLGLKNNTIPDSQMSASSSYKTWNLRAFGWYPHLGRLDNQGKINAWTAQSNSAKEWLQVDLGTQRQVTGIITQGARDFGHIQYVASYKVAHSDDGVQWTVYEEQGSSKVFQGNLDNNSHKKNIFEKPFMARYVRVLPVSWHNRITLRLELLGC

T2: recombinant human MFG-E8 (rhMFG-E8) (human, UniProt Q08431 24-387, limits assumed)
T2 sequence (looked up): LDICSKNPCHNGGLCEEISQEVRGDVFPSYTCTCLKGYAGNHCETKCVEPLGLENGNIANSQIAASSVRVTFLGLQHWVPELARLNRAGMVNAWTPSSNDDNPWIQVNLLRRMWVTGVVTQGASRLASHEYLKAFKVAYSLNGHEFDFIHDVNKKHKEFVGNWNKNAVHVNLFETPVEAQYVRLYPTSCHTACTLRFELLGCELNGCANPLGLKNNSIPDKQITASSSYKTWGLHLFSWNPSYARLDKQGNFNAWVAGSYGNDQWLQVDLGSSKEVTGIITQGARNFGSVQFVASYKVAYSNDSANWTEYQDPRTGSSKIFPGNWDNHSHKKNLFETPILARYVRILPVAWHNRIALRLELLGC

B1: recombinant murine (rm) CIRP (ligand, mouse, UniProt P60824 1-172, looked up)
chain: MASDEGKLFVGGLSFDTNEQALEQVFSKYGQISEVVVVKDRETQRSRGFGFVTFENIDDAKDAMMAMNGKSVDGRQIRVDQAGKSSDNRSRGYRGGSAGGRGFFRGGRSRGRGFSRGGGDRGYGGGRFESRSGGYGGSRDYYASRSQGGSYGYRSSGGSYRDSYDSYATHNE
notes: For SPR it was bought (Cat # CSB-EP613483He0); For the cell assays it was made in the lab and, in the uptake experiments, labelled with FITC; also called eCIRP
B2: recombinant human CIRP (rhCIRP) (ligand, UniProt Q14011 1-172, looked up)
chain: B1 chain with A21S, S109G, G126N, A143S, G148S, S150G, G152S, Y153D
notes: The source of rhCIRP is not described in the methods
B3: MFG-E8-derived oligopeptide 3 (MOP3) (peptide)
peptide: RGDSSSYKTWNLRAFGWY
notes: Synthetic 18-residue chimeric peptide: RGD followed by 15 residues of the mouse MFG-E8 discoidin domain 2

Experiments:
[1] = target: T1, recombinant murine MFG-E8 (rmMFG-E8); assay: SPR (Biacore/OpenSPR); rmCIRP immobilised, rmMFG-E8 as analyte at 15.7-250 nM; 1:1 fit; mouse proteins
Description: (§1) To examine the direct interaction between rmCIRP and rmMFG-E8, surface plasmon resonance (SPR), OpenSPR (Nicoya), was performed between rmCIRP and rmMFG-E8. rmCIRP was immobilized on carboxyl sensor and rmMFG-E8 was injected as an analyte in concentrations of 15.7 nM to 250 nM. Binding reactions were performed in DPBS, with Calcium and Magnesium, 0.05% P20, 1% BSA, and pH 7.4. In parallel experiments, binding of MOP3 to rmCIRP (analyte) was performed with concentrations of 0.5 μm to 2 μM, and binding of MOP3 to αᵥβ₃-integrin (analyte) was performed in concentrations of 31.25 nM to 125 nM. All binding reactions were performed in PBS 0.05% P20, pH7.4. Briefly, the carboxyl sensor was first cleaned by injection 10 mM HCL 150 μl, followed by injection of 150 μl of the mixture of 1 aliquot of N-ethyl-N′-[3-[…]]-carbodiimide (EDC) and 1 aliquot of N-hydroxysuccinimide (NHS) to activate the sensor surface. An aliquot of 200 μl of 50 μg/ml of the ligand diluted in 10 mM sodium acetate (pH 5.5) was injected at 20 μl/minutes into flow cell-channel-2 of the sensor for immobilization. Next, 150 μl of 1 M […] (pH 8.5) was injected to deactivate the remaining active sites on channel 1&2. […] To evaluate binding, the analyte was injected into flow cell-1 and flow cell-2 and increasing concentrations and real-time interaction data were analyzed by TraceDrawer (Nicoya). […]

[2] = target: T2, recombinant human MFG-E8 (rhMFG-E8); assay: SPR (Biacore); human proteins
[3] = target: B1; assay: SPR (Example 1); Example 1; paragraph 73 gives a separate value of 3.1×10^-7 M
[4] = target: B1; assay: SPR (Biacore/OpenSPR); rmCIRP as analyte at 0.5-2 µM; 1:1 fit; Example 2, Biacore
Description: as §1

[5] = target: T3, αvβ3-integrin (recombinant, R&D Systems Cat #7889-AV-050); assay: SPR (Biacore/OpenSPR); αvβ3-integrin as analyte at 31.25-125 nM; 1:1 fit
T3 construct: Used as the analyte in SPR over immobilised MOP3; also called αvβ3-integrin receptor; auß3-integrin
Description: as §1

T3 sequence (P43406 31-988, chain 1 of 2): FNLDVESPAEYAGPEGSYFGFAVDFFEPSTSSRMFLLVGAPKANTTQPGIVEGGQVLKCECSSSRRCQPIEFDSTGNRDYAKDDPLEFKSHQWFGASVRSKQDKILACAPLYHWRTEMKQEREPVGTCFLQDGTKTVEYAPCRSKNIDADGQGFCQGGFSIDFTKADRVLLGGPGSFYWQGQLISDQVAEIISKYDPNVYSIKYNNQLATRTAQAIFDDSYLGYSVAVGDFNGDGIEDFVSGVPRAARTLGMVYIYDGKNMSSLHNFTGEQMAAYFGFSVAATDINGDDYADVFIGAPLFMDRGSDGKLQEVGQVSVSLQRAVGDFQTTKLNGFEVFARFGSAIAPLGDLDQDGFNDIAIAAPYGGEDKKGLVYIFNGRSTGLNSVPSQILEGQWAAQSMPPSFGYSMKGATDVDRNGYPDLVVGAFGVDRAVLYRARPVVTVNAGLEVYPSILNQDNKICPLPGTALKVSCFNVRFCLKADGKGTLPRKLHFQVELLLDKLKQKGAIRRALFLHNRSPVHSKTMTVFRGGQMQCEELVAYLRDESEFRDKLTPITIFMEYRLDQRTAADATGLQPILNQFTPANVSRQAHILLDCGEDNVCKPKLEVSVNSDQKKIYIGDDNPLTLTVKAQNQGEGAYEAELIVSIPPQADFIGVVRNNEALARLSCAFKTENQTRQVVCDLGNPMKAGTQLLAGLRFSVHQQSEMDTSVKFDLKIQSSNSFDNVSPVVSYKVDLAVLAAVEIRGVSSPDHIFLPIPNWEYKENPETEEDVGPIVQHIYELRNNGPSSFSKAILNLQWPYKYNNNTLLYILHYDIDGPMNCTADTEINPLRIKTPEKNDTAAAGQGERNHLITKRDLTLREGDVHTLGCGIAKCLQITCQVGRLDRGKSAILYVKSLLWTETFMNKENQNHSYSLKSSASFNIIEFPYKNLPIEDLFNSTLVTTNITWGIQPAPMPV
T3 sequence (O54890 26-717, chain 2 of 2, further chain): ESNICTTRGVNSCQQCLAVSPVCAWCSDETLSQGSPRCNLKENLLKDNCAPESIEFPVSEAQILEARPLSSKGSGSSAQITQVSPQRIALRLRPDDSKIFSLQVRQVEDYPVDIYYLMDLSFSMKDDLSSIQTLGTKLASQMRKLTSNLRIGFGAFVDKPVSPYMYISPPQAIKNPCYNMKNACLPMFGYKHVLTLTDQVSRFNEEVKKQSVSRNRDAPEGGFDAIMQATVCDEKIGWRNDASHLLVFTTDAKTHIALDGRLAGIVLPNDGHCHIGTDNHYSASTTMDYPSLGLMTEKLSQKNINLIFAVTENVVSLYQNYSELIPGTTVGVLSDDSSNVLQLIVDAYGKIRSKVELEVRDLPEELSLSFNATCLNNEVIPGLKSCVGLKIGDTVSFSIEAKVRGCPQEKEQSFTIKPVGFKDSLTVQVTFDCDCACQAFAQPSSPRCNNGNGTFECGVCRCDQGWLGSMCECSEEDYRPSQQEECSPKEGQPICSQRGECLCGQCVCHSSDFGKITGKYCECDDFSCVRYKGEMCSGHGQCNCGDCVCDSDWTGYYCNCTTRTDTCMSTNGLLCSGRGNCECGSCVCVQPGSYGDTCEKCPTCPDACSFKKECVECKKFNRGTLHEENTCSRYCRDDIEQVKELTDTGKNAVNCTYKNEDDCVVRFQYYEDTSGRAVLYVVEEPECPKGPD

Binder: B1
- Kd [1]: 200 nM

Binder: B2
- Kd [2]: 29 nM

Binder: B3
- Kd [3]: 13 nM
- Kd [4]: 310 nM
- Kd [5]: 776 nM
